From paper PMC2918618, “Characterization of the TnsD-attTn7 complex that promotes site-specific insertion of Tn7” (Mobile DNA, 2010)

Legend:
Experiment in all cases: EMSA; Gel-shift buffer not given (as described in ref. 6); TnsD stored in 500 mM KCl, 50 mM Tris-HCl pH 8.0, 1 mM EDTA, 2 mM DTT, 25% glycerol
Details in all cases: protein: recombinant; tags: intein-chitin tag, cleaved with DTT
[1] = target: T1, TnsD wt (Escherichia coli (transposon Tn7), UniProt P13991 1-508)
T1 sequence: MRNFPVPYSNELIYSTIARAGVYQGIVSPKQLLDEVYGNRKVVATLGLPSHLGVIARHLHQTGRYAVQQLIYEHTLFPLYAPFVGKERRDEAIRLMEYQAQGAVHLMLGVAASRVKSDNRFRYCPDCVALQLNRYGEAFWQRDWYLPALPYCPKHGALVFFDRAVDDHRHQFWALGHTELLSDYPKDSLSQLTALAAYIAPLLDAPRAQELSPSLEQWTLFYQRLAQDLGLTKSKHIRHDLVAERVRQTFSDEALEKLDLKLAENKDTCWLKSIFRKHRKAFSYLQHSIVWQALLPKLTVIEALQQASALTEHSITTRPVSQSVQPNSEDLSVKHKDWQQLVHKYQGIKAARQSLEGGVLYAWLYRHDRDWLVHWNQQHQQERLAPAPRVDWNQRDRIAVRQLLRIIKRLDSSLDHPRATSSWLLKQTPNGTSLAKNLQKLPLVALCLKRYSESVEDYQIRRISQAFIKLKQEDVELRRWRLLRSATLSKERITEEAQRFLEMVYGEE

[2] = target: T2, TnsD C124S (Escherichia coli (transposon Tn7), UniProt P13991 1-508, C124S)
T2 sequence: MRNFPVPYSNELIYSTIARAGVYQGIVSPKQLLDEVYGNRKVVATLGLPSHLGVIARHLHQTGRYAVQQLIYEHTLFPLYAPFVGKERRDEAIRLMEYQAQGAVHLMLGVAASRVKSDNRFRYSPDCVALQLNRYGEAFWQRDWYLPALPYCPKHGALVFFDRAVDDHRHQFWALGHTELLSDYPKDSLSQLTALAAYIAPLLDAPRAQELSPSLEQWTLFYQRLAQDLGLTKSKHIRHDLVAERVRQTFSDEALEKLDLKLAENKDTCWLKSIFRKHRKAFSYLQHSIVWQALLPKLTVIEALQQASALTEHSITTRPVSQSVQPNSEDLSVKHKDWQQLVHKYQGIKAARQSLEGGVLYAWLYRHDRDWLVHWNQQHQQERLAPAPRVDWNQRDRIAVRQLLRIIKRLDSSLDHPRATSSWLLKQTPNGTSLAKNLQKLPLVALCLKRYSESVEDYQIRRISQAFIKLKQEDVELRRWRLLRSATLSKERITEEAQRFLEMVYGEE

[3] = target: T3, TnsD C152S (Escherichia coli (transposon Tn7), UniProt P13991 1-508, C152S)
T3 sequence: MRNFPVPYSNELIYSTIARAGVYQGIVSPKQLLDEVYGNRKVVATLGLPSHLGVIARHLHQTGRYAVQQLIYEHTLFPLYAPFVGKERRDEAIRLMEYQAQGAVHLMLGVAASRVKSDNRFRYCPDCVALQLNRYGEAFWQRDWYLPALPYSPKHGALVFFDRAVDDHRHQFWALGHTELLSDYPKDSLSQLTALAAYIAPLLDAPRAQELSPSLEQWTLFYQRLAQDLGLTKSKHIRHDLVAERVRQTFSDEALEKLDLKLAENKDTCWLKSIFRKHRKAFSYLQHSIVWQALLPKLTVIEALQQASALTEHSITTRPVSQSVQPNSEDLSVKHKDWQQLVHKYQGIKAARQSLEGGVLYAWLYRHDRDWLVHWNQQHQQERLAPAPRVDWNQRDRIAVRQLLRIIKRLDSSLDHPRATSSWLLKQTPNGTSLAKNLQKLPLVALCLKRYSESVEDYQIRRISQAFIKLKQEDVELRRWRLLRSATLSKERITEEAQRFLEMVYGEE

[4] = target: T4, TnsD H155S (Escherichia coli (transposon Tn7), UniProt P13991 1-508, H155S)
T4 sequence: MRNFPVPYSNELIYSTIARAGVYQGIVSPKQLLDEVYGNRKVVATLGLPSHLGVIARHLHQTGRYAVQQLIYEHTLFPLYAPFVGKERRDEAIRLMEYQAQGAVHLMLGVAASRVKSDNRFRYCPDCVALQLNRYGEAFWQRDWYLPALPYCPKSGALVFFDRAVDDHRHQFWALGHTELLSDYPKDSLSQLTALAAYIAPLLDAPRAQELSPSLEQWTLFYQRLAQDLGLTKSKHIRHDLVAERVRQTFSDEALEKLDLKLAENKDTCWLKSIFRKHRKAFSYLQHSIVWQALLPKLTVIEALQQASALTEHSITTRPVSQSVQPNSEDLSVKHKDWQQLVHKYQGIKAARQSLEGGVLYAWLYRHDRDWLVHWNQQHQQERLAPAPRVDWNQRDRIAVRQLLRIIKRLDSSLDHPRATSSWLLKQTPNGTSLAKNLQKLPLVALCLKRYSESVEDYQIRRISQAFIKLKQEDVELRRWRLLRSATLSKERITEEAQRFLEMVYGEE

B1: attTn7 wt (+23 to +58) (dsDNA)
DNA 1: CCGCGTAACCTGGCAAAATCGGTTACGGTTGAGTAA
DNA 2: TTACTCAACCGTAACCGATTTTGCCAGGTTACGCGG
- binding signal [1]: 1 relative to wt
- binding signal [2]: 0.05 relative to wt
- binding signal [3]: 0.05 relative to wt
- binding signal [4]: 0.05 relative to wt
